According to patent US20240368242A1:

Biological target: recombinant murine CD40 protein (murine) (UniProt P27512)
Assay: SPR, binding to mCD40

Chain of recombinant murine CD40 protein (murine) (P27512 24-193 limits assumed): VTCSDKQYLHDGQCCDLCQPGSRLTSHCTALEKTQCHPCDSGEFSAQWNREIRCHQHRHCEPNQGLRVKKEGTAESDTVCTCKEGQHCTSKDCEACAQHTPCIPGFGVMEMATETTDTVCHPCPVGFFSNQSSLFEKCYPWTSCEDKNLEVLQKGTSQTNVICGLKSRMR

Kd: 3.23 nM | koff: 9.81e-05 s⁻¹ | kon: 30400 M⁻¹ s⁻¹
B1: mCD40L-Fc (Fc fusion, from a related filing)
chain: MQRGDEDPQIAAHVVSEANSNAASVLQWAKKGYYTMKSNLVMLENGKQLTVKREGLYYVYTQVTFCSNREPSSQRPFIVGLWLKPSSGSERILLKAANTHSSSQLCEQQSVHLGGVFELQAGASVFVNVTEASQVIHRVGFSSFGLLKL
modifications: left off: a dimerising Fc or GST
